Assay results taken from US20210332138A1 (1GLOBE BIOMEDICAL, published 2021).

Legend:
[1] = molecular target: T1, Rhesus PDL1 (expression construct transiently transfected into 293T cells) (Rhesus, UniProt F6VEW6 19-290); test: FACS on 293T cells transiently transfected with Rhesus PDL1
T1 construct: whole, on cells
Procedure: (B) 293T cells were transiently transfected with Rhesus PDL1 expression construct. Embodiments 4-1E8, 3-1E4 and 3-1B11 were tested and compared to control.

[2] = molecular target: T2, Rhesus PDL1-GFP (expression construct transiently transfected into 293T cells) (Rhesus, UniProt F6VEW6 19-290); test: FACS on 293T cells transiently transfected with Rhesus PDL1-GFP
T2 construct: whole, on cells; not shown: GFP fused to PDL1
T2 sequence (chain, as listed by the source): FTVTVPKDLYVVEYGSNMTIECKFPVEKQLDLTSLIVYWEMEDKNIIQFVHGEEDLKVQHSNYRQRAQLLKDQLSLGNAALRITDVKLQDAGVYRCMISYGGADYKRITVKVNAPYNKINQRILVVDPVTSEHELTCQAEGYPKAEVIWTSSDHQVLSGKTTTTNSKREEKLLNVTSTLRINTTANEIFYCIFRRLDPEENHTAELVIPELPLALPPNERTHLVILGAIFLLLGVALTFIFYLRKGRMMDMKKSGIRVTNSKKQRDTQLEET
Procedure: (A) 293T cells were transiently transfected with Rhesus PDL1-GFP expression construct. Embodiments 4-1E8, 3-1E4 and 3-1B11 were tested and compared to control.

binding result [1] | binding result [2] | Binder
binds | binds | full-length antibody 3-1E4 (antibody, human IgG1, V domains shown, Tested as a full-length antibody; the summary speaks of human IgG1) VH: QIQLVQSGAEVKKPGSSVKVSCKASGGTFSSYAISWVRQAPGQGLEWMGGIIPIFGTANYAQKFQGRVTITADKSTSTAYMELSSLRSEDTAVYYCAGGGAVADNSYWGQGTLVTVSS VL: DIRMTQSPSSLSASVGDRVTITCRASQGIRNDLGWYQQKPGKAPKLLIYAASSLQSGVPSRFSGSGSGTDFTLTISSLQPEDFATYYCLQDYNYPRTFGQGTKVEIK
binds | binds | full-length antibody 4-1E8 (antibody, human IgG1, V domains shown, Tested as a full-length antibody made from the scFv's VH and VL in 293T cells; the summary speaks of a human IgG1 constant region, and ADCC activity is reported) VH: QIQLVQSGAEVKMPGASVTISCEASGYNFISYYIHWVRQAPGQGLEWMGFVVPSGGAAGYTQKFQGRLTVTRDTSTSTVYMDLNSLTSDDTAVYYCVREMSGGWFDFWGQGTLVTVSS VL: DIVMTQSPSSLSASVGDRVTITCRASQGIRNDLGWYQQKPGKAPKLLIYAASTLQSGVPSRFSGSGSGTDFTLTISSLQAEDVAVYYCQQYYSTPLTFGPGTKVDIK
binds | binds | full-length antibody 3-1B11 (antibody, human IgG1, V domains shown, Tested as a full-length antibody; the summary speaks of human IgG1) VH: EVQLVESGGGLVQPGGSLRLSCAASGFTFSDYDMIWVRQAPGKGLEWVAVISYDGSNKYYADSVKGRFTISRDNSKNTLYLQMNSLRAEDTAVYYCAKEFFGAFDIWGQGTMVTVSS VL: SSELTQDPAVSVALGQTVTITCQGDSLNYYYANWFQLKPGQAPVLVLFGKNNRPSGIPDRFSGSYSGSTASLTITGAQAEDDADYYCNSRDSGGNPWVFGGGTKLTVL
